From patent US6586222

Tests used:
[1] = test system: recombinant human proPR-3 secreted from Sf9 insect cells
[2] = biological target: recombinant human proPR-3 secreted from Sf9 insect cells (human) (UniProt P24158); test: cell-based or functional assay
Sequence of recombinant human proPR-3 secreted from Sf9 insect cells (human) (P24158 26-256 V119I): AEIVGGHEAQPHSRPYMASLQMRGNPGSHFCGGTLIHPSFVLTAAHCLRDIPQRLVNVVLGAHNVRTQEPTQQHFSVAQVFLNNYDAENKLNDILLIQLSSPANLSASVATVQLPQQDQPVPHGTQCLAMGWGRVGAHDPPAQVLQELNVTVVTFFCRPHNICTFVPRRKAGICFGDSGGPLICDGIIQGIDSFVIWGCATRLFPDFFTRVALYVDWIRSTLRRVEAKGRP

Sequence of recombinant human proPR-3 secreted from Sf9 insect cells (chain, as listed by the source): as the sequence (P24158 26-256 V119I) above

| Substance | activation of proPR-3 (PR-3 activity on Boc-Ala-ONp after DPPI treatment) [1] | N-terminal sequence of PR-3 after preparative DPPI activation [2] [%] |
| --- | --- | --- |
| bovine dipeptidyl peptidase I (Boehringer Mannheim) | 1.25% (wt/wt) was determined the minimum amount of DPPI required to obtain complete activation of PR-3 in 3 hr. at 37 °C |  |
| bovine dipeptidyl peptidase I (Boehringer Mannheim) (from UniProt Q3ZCJ8 25-463) (enzyme) |  | > 85 |
